Assay results: US20260176319A1 (KALLYOPE, published 2026)
Starred links: 1 amine or outer side, 2 acyl side, 3 side chain; linkers in the order of their positions; H or OH if unused. Non-standard residues stand in square brackets, D forms with d. *: point of attachment. Trp(7-Me) = Cc1cccc2c(C[C@H](N)C(=O)O)c[nH]c12; C18 diacid = O=C(O)CCCCCCCCCCCCCCCCC(=O)*; γGlu = O=C(O)[C@H](CCC(=O)[*:2])N[*:1]; Nle = CCCC[C@H](N)C(=O)O; AEEA = NCCOCCOCC(=O)O; Sar = CNCC(=O)O

Target: human GRP receptor (human, UniProt P30550 1-384)
Assay: cell-based or functional assay

human GRP receptor, sequence (P30550 whole entry): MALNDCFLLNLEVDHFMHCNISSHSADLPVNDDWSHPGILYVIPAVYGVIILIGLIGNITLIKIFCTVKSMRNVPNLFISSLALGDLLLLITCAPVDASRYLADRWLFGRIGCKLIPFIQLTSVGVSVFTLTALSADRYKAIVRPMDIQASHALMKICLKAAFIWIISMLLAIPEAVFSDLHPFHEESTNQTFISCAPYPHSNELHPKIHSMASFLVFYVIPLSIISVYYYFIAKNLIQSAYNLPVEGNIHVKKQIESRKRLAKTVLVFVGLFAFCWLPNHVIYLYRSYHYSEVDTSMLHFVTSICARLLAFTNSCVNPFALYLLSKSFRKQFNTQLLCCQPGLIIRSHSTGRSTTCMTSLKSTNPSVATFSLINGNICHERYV

| hIP1 GRPR EC50 [nM] | Binder |
| --- | --- |
| 8.02 | {C18 diacid}-[γGlu][AEEA][AEEA][AEEA][AEEA]GRHWAV[dA]HL[Nle]-NH2 (SMILES CCCC[C@H](NC(=O)[C@H](CC(C)C)NC(=O)[C@H](Cc1c[nH]cn1)NC(=O)[C@@H](C)NC(=O)[C@@H](NC(=O)[C@H](C)NC(=O)[C@H](Cc1c[nH]c2ccccc12)NC(=O)[C@H](Cc1c[nH]cn1)NC(=O)[C@H](CCCNC(=N)N)NC(=O)CNC(=O)COCCOCCNC(=O)COCCOCCNC(=O)COCCOCCNC(=O)COCCOCCNC(=O)CC[C@H](NC(=O)CCCCCCCCCCCCCCCCC(=O)O)C(=O)O)C(C)C)C(N)=O) [Peptide 118] |
| > 10000 | {C18 diacid}-[γGlu][AEEA][AEEA]GRHHAV[dA]HL[Nle]-NH2 (SMILES CCCC[C@H](NC(=O)[C@H](CC(C)C)NC(=O)[C@H](Cc1c[nH]cn1)NC(=O)[C@@H](C)NC(=O)[C@@H](NC(=O)[C@H](C)NC(=O)[C@H](Cc1c[nH]cn1)NC(=O)[C@H](Cc1c[nH]cn1)NC(=O)[C@H](CCCNC(=N)N)NC(=O)CNC(=O)COCCOCCNC(=O)COCCOCCNC(=O)CC[C@H](NC(=O)CCCCCCCCCCCCCCCCC(=O)O)C(=O)O)C(C)C)C(N)=O) [Peptide 116] |
| > 10000 | {C18 diacid}-[γGlu][AEEA][AEEA]GNHW[dA]V[dA]HL[Nle][Sar]-NH2 (SMILES CCCC[C@H](NC(=O)[C@H](CC(C)C)NC(=O)[C@H](Cc1c[nH]cn1)NC(=O)[C@@H](C)NC(=O)[C@@H](NC(=O)[C@@H](C)NC(=O)[C@H](Cc1c[nH]c2ccccc12)NC(=O)[C@H](Cc1c[nH]cn1)NC(=O)[C@H](CC(N)=O)NC(=O)CNC(=O)COCCOCCNC(=O)COCCOCCNC(=O)CC[C@H](NC(=O)CCCCCCCCCCCCCCCCC(=O)O)C(=O)O)C(C)C)C(=O)N(C)CC(N)=O) [Peptide 115] |
| > 10000 | {C18 diacid}-[γGlu][AEEA][AEEA]GNHWAV[dA]HL[Nle]R-NH2 (SMILES CCCC[C@H](NC(=O)[C@H](CC(C)C)NC(=O)[C@H](Cc1c[nH]cn1)NC(=O)[C@@H](C)NC(=O)[C@@H](NC(=O)[C@H](C)NC(=O)[C@H](Cc1c[nH]c2ccccc12)NC(=O)[C@H](Cc1c[nH]cn1)NC(=O)[C@H](CC(N)=O)NC(=O)CNC(=O)COCCOCCNC(=O)COCCOCCNC(=O)CC[C@H](NC(=O)CCCCCCCCCCCCCCCCC(=O)O)C(=O)O)C(C)C)C(=O)N[C@@H](CCCNC(=N)N)C(N)=O) [Peptide 114] |
| 16.5 | {C18 diacid}-[γGlu][AEEA][AEEA][AEEA][AEEA]GRH[Trp(7-Me)]AV[dA]HL[Nle]-NH2 (SMILES CCCC[C@H](NC(=O)[C@H](CC(C)C)NC(=O)[C@H](Cc1c[nH]cn1)NC(=O)[C@@H](C)NC(=O)[C@@H](NC(=O)[C@H](C)NC(=O)[C@H](Cc1c[nH]c2c(C)cccc12)NC(=O)[C@H](Cc1c[nH]cn1)NC(=O)[C@H](CCCNC(=N)N)NC(=O)CNC(=O)COCCOCCNC(=O)COCCOCCNC(=O)COCCOCCNC(=O)COCCOCCNC(=O)CC[C@H](NC(=O)CCCCCCCCCCCCCCCCC(=O)O)C(=O)O)C(C)C)C(N)=O) [Peptide 117] |
